By Kd is commonly meant a measure of binding affinity in units of concentration. Higher therefore signals lower affinity.

The target in one assay is human KDM5D PHD1 finger (human, Zn2+-bound; 15N-labelled). Briefly: NMR titration.
In another assay the target is T1, yeast KDM5 PHD finger (S. cerevisiae, Zn2+-bound; 15N-labelled).
T1 chain: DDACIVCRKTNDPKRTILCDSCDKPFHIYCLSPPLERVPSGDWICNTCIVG
Put plainly: NMR titration.

In the case of ARTKQTARKSTG (peptide, UniProt P68431 2-13, looked up) [H3K4me0 peptide (aa 1-12 of H3)], the results for the Kd in the assay with human KDM5D PHD1 finger and with yeast KDM5 PHD finger were 3500 µM and 117 µM, respectively.
